Publication PMC5045189, “High Resolution Mapping of Bactericidal Monoclonal Antibody Binding Epitopes on Staphylococcus aureus Antigen MntC” (PLoS Pathogens, 2016)

Tests used:
[1] = target: T1, Staphylococcus aureus manganese transporter protein MntC, wild type, recombinant (Staphylococcus aureus); assay: ITC; details: both partners purified
T1 construct: also called wild type MntC; full length MntC; source: recombinant; cloning, expression and purification previously described [3]
T1 chain: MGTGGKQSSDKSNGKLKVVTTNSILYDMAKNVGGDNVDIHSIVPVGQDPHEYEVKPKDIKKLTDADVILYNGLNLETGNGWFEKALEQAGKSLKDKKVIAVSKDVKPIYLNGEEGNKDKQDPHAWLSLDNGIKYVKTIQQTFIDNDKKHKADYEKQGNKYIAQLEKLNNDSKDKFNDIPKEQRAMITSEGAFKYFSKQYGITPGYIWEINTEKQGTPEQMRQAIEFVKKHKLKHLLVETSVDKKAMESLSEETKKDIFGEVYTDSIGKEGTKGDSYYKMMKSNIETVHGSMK

[2] = target: T2, Histidine-tagged wild-type MntC (pET-19b) (Staphylococcus aureus); assay: BLI; details: both partners purified
T2 construct: source: E. coli BL21(DE3), purified (HisPur Ni-NTA Agarose, size-exclusion chromatography); not shown: His-tag, N-terminal, kept
T2 chain: T1 chain

B1: monoclonal antibody mAB 305-78-7 (intact antibody, interference group 2) (antibody, V domains shown)
VH: QVQLQQSGAELARPGASVKMSCKASGYTFTRYTMHWVQQRPGQGLEWIGYINPSSDYTKYNQKFKDKATMTADKSSSTAYMQLSSLTSEDSAVYYCARKEDVGYWYFDFWGTGTTVTVSS
VL: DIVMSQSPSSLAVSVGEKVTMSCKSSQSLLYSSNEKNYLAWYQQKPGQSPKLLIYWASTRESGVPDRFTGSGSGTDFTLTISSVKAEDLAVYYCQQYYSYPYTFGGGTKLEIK
notes: source: generation previously described [3]
**Q.** With B1 as the binder, how does the Kd [1] read?
**A.** Its Kd is 1.2 nM.

**Q.** And the dH [1]?
**A.** The dH was -19.9 kcal/mol.

**Q.** And the Kd [2]?
**A.** Its Kd is 1.2 nM.

**Q.** What about the koff [2] of the same binder?
**A.** The koff was 0.00024 s⁻¹.

**Q.** What about the kon [2] of the same binder?
**A.** Its kon is 220000 M⁻¹ s⁻¹.
